Patent publication US20230073274A1 (NOVELMED THERAPEUTICS, published 2023)

Assays:
human properdin [1] = molecular target: T1, human properdin (human, UniProt P27918 28-469); test: cell-based or functional assay
human properdin [2] = molecular target: T1, human properdin; test: properdin binding assay (method of Example 8, not restated)
human properdin [3] = molecular target: T1, human properdin; test: ELISA, properdin coated on the plate, OD 450 nm
human properdin [4] = molecular target: T1, human properdin; test: cell-based or functional assay; remark: listed apart in the source

T1 sequence (P27918 28-469 limits assumed): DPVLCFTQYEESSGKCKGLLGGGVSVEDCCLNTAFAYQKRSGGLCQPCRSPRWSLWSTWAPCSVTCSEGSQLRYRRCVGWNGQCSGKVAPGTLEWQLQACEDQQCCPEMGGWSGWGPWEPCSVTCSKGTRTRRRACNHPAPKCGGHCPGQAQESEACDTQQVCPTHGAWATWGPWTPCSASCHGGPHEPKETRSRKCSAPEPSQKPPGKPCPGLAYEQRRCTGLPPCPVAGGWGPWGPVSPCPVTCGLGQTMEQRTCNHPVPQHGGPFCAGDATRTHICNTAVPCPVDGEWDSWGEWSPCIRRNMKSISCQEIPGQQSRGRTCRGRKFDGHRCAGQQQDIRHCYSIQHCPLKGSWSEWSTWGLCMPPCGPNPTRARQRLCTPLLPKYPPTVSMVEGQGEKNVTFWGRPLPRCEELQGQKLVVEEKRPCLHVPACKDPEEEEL

Row | Binder | IC50 (read off the curve): C3b deposition (sheet title: LPS C3b 10% NHS) (human properdin [1]) [µg/mL] | Affinity (human properdin [2]) [pM] | EC50 (read off the curve) (human properdin [3]) [pM] | C3b (µg/mL); inhibition of AP mediated C3b formation and deposition (human properdin [4]) [µg/mL] | MAC (µg/mL); inhibition of MAC formation (human properdin [4]) [µg/mL]
1 | NMT17-100 (antibody, V domains shown) VH: EVQLVQSGAEVKKPGASVKVSCKASGYIFTNYPIHWVRQAPGQGLEWMGFIDPGGGYDEPDERFRDRVTMTADTSTSTAYMELSSLRSEDTAVYYCARRGGGYYLDYWGQGTTVTVSS VL: DIQMTQSPSSLSASVGDRVTITCRASQDISFFLNWYQQKPGKAPKLLIYYTSRYHSGVPSRFSGSGSGTDFTLTISSLQPEDFATYYCQHGSTLPWTFGQGTKLEIK | ~0.4 | 263 | ~300 | 1 | 1
2 | NMT18-100 (antibody, V domains shown) VH: EVQLVQSGAEVKKPGASVKVSCKASGYIFTNYPIHWVRQAPGQGLEWMGFIDPGGGYDEPDERFRDRVTMTADTSTSTAYMELSSLRSEDTAVYYCARRGGGYYLDYWGQGTTVTVSS VL: DIQMTQSPSSLSASVGDRVTITCRASQDISFFLNWYQQKPGKAPKLLIYYTSRYHSGVPSRFSGSGSGTDFTLTISSLQPEDFATYYCQHGQTLPWTFGQGTKLEIK | ~0.5 | 322 | 300 to 400 | 1 | 1
3 | NMT17-101 (antibody, V domains shown) VH: EVQLVQSGAEVKKPGASVKVSCKASGYIFTNYPIHWVRQAPGQGLEWMGFIDPGGGYDEPDERFRDRVTMTADTSTSTAYMELSSLRSEDTAVYYCARRGGGYYLDYWGQGTTVTVSS VL: DIQMTQSPSSLSASVGDRVTITCRASQDISFFLNWYQQKPGKAPKLLIYYTSRYHSGVPSRFSGSGSGTDFTLTISSLQPEDFATYYCQHGSTLPWTFGQGTKLEIK | ~0.5 | 499 | ~500 | 1 | 1

The next lines start with the values.

Row | IC50 (read off the curve): C3b deposition (sheet title: LPS C3b 10% NHS) (human properdin [1]) [µg/mL] | Affinity (human properdin [2]) [pM] | EC50 (read off the curve) (human properdin [3]) [pM] | C3b (µg/mL); inhibition of AP mediated C3b formation and deposition (human properdin [4]) [µg/mL] | MAC (µg/mL); inhibition of MAC formation (human properdin [4]) [µg/mL] | Binder
4 | ~0.5 | 590 | ~600 | 1 | 3 | NMT18-101 (antibody, V domains shown) VH: EVQLVQSGAEVKKPGASVKVSCKASGYIFTNYPIHWVRQAPGQGLEWMGFIDPGGGYDEPDERFRDRVTMTADTSTSTAYMELSSLRSEDTAVYYCARRGGGYYLDYWGQGTTVTVSS VL: DIQMTQSPSSLSASVGDRVTITCRASQDISFFLNWYQQKPGKAPKLLIYYTSRYHSGVPSRFSGSGSGTDFTLTISSLQPEDFATYYCQHGQTLPWTFGQGTKLEIK
5 | ~0.5 | 318 | 300 to 400 | 1 | 3 | NMT28-100 (antibody, V domains shown) VH: EVQLVQSGAEVKKPGASVKVSCKASGYIFTNYPIHWVRQAPGQGLEWMGFIDPGGGYDEPDERFRDRVTMTADTSTSTAYMELSSLRSEDTAVYYCARRGGGYYLDYWGQGTLVTVSS VL: DIQMTQSPSSLSASVGDRVTITCRASQDISFFLNWYQQKPGKAPKLLIYYTSRYHSGVPSRFSGSGSGTDFTLTISSLQPEDFATYYCQHGQTLPWTFGQGTKVEIK
6 | ~0.5 | 425 | ~400 | 1 | 3 | NMT28-101 (antibody, V domains shown) VH: EVQLVQSGAEVKKPGASVKVSCKASGYIFTNYPIHWVRQAPGQGLEWMGFIDPGGGYDEPDERFRDRVTMTADTSTSTAYMELSSLRSEDTAVYYCARRGGGYYLDYWGQGTLVTVSS VL: DIQMTQSPSSLSASVGDRVTITCRASQDISFFLNWYQQKPGKAPKLLIYYTSRYHSGVPSRFSGSGSGTDFTLTISSLQPEDFATYYCQHGQTLPWTFGQGTKVEIK
